# Results taken from publication PMC5986797 (2018).
# T1: recombinant laminin LAMA3_(2928–3150) protein (human, UniProt Q16787 2928-3150)
# T1 chain: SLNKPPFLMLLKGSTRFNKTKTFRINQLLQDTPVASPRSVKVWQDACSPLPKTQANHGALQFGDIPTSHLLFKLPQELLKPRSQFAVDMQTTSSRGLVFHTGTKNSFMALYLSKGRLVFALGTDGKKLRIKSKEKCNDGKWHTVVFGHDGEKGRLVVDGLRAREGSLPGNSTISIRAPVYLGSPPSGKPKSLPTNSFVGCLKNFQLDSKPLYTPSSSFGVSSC
# B1: vascular endothelial cell growth factor VEGF-A165 (ligand)
# chain: APMAEGGGQNHHEVVKFMDVYQRSYCHPIETLVDIFQEYPDEIEYIFKPSCVPLMRCGGCCNDEGLECVPTEESNITMQIMRIKPHQGQHIGEMSFLQHNKCECRPKKDRARQENPCGPCSERRKHLFVQDPQTCKCSCKNTDSRCKARQLELNERTCRCDKPRR
# B2: placental growth factor (PlGF)-2 (ligand)
# chain: LPAVPPQQWALSAGNGSSEVEVVPFQEVWGRSYCRALERLVDVVSEYPSEVEHMFSPSCVSLLRCTGCCGDENLHCVPVETANVTMQLLKIRSGDRPSYVELTFSQHVRCECRPLREKMKPERRRPKGRGKRRREKQRPTDCHLCGDAVPRR
# B3: platelet-derived growth factor PDGF-BB (ligand)
# chain: SLGSLTIAEPAMIAECKTRTEVFEISRRLIDRTNANFLVWPPCVEVQRCSGCCNNRNVQCRPTQVQLRPVQVRKIEIVRKKPIFKKATVTLEDHLACKCETVAAARPVT
# Key:
# Assay in all cases: SPR
# [1] = target: T1, recombinant laminin LAMA3_(2928–3150) …
# [2] = target: T1, recombinant laminin LAMA3_(2928–3150) …
# [3] = target: recombinant human laminin-521 (human, UniProt O15230 36-3695; P55268 33-1798; P11047 34-1609)
Binder,koff [1] [s⁻¹],Kd [2] [nM],koff [3] [s⁻¹]
B1,0.00663,1.47,0.00324
B2,–,–,0.0246
B3,0.0136,12.1,0.00497
